The nature of this data set: label from the status in PepcDB records.
“MRVLILGSGVIGTTSAWYLSKAGCEVVVVDRQSGAGLETSYANGGQLSFGYTSPWAAPGVPLKAVRWLFERHAPLSIRPTTDWNQYVWLARMLRHCSAERYAVNKSRMLRLSEYSREALEALSAETGITFEGRRLGTIQLFRTQQQLDGAVRDIELLTQYGIPYEVLSPHQLAKFEPGLADGSVRFVGALRLPHDQTGDCCLFTQRLAALAAKRGVEFRYGCTVQRLEVDGPRVTGAWINGALERADCCVVALGSYSPLLLAPLGLRLPVYPLKGFSLTLPMIDASRAPVSTVLDESYKVAVTRFDERIRVAGMAEVSGYDVSLNPRRRSTLEMVVQDVYPGCGDLGRGEFWTGLRPATPDGTPVIGATPYQGLFLNTGHGTLGWTMSSGSGRYLADLICCRPCEISSEGLDMFRYLVSTIPCPQECAPCVPPTP”: the protein production result is given as “failed”.
As to “MRVLKKFFSGDNLLERVLILIVGLVASLILVIKSADLFVDNLVDLGSSLGISEVILGVTASAIGTSLPEFGSALIASLSGSTDIGVGCVIGSNIWNIAGILGISSVVAGIIETNADGLKRDFSATLVTGLILLFFMFFGNIGKIAALVMVLTYAVYLWRLIKAQKTYSDENSGKNEREPLDLKKLALTVVGFAGLVIGCRILVYTGVELADIAGIPAMIMGLFTLAIGTSIPELVVTLSSAVKGLHELSIGTVLGSNTFNILVGIGVPALIAPVPVERLSLTFDAPVMILVTVLLVLLIRQGDMKLKRTGGIVLLAVYISYVIMRLFVLA”, the protein production result is given as “failed”.
Take “MRVPALKPILLQLHSVAGLVLAAVLVLVALTGAVMSFEDEIRGALDAGRVQLAPHAGSRMPLDALIAKLQAGGDPVASITMPRSAASAAEVRFARKPDHTRPAPLYLDPYTGESLGHPAADAFFATVRKLHRWLLLPGDGNGYGRTITGVAALGLLAMLLTGLVLRWPHRPGSIKVWLKPHWQLRGRGLHRSLHAVIGTWVLLLYLIMTLTGLWWSFDWYKTAATWLLARSPVTMQPPNRAAVTAAPSAAISLDRVWATLVAERGDRFEAARLTLPSGREGTVRVRAWLTDARDGAHDEFRIDGRSGQVLSADIYADKTIGEKVLARVLDIHRGSIFGWPGQLLFMLAAAAMPLFGVTGVLLYLSRRRHQRMQRAARAKVG”: the protein production entry is given as “failed”.
As for “MRVTHFFMAAIAVVFVLAGCSTMPKKPDSLTRGDYGYTKEYVSWLIKKEMRENDVTGLSIALVDDQRVVWAQGFGVADEANKVPATPDTIYRVGSISKLFTATAVLQLAEQGKMDIDKPLSTYLPEFSVKSRFPDAGPITPRTLMTHHSGLPSDFLKGMWTNNPEPISNVVNLLKDEYAQYPPNFVFSYSNLGVSLLGNAVERIAGRPYASQIDETVLHPLGMASSSFSTHSDVASRLAKGYRNGKEIGEPQLRDIPAGGLHTNVLDLSRFMEMVFAGGKAGERRILKEETLAEMLSPQNDGVPLDHDFHIGLGWLLTDVGIENAGKVAWHDGATLLYRSQMVILPEQKLGVVVLSNSATAASVVHKVATEALKLAMEAKAGIRQPERSKPVEREADLSPEERQKLAGAYVTPFGTVKVIESGTTLRTEFFGKTFSVVPRNDGRMGLRYRLLGVIPISLGDLDYLGFSTSTVSGHNVLLATAAGKSMLVGEKMEPVLVSEQWQRRVGAYEIANPGDDTMLVDDIRLRYEDGFLRVDYALPLFFDGKLNVSLQPLSDTEAVIRGLGRGMGETIRVVAVNGEEMLQYSGYLLKKKRE”, the protein production entry is recorded as “failed”.
Next, “MRVVVISSFVSVSLQLSFLLLLASAIRSSSSPPNDPFLGISPQDEKYYKSSSEIKCKDGSKKFTKAQLNDDFCDCSDGTDEPGTSACPTGKFYCRNAGHSPVILFSSRVNDGICDCCDGSDEYDGHVSCQNTCWEAGKAARENLKKKIETYNQGLVIRRQEIEQAKVGLEKDAAELKKLKSEQKILKGLVDQLKDRKEQIEKVEEKERLQKEKEEKEKKEAELAAQQGKGDAEEKTDDSEKVEESSHDEGTPAVSQHDETTHHDEIGNYKDYPSDEEPAAEGEPTSILDEATHTNPADEHVVERKEESTSSEDSSSPTDESQNDGSAEKEESDEVKKVEDFVTEKKEELSKEELGRLVASRWTGEKSDKPTEADDIPKADDQENHEHTPITAHEADEDDGFVSDGDEDTSDDGKYSDHEPEDDSYEEEYRHDSSSSYKSDADDDVDFSETTSNPTWLEKIQKTVKNILLAVNLFQTTPVDKSEADRVRKEYDESSSKLNKIQSRISSLEKKLKQDFGPEKEFYSFHGRCFESKQGKYTYKVCAYKEATQEEGYSKTRLGEWDKFENSYQFMSYTNGEKCWNGPDRSLKVKLRCGLKNELMDVDEPSRCEYAAILSTPARCLEDKLKELQQKLEKLMNQDKPQNHDEL”: “failed”; “MRWNICVVGAGKIGQMIAALLKTSSNYSVTVADHDLAALAVLNRMGVATKQVDAKDEAGLAKALGGFDAVISAAPFFLTPIIAKAAKAAGAHYFDLTEDVAATNAVRALAEDSQTAFMPQCGLAPGFVGIAGAALAAEFDEIDSLHMRVGALPLYPTNALKYNLTWSTDG”: “failed”.
In the case of “MRYGFMKVAAAVPFVKVADCEYNIERIDRMVHEADAKGVEIMTFPELSITGYSCGDLFFQPFLQERANEALCRLVEQTANTTVMVIVGMPLRVEEKLFNSAVVFQQGKILGAIPKTYLPNYREFQEARWFSPAHTLQYSTISIGQHSVPIGRNLIFKCGTVGVGIEICEDMWTPFTPGTRLCLYGAEVIFNLSSSNENAGKHSYLRSLISGLSSQGICAYVYASSGYGESSTDIVFTGKAFIAEAGEIVEEMERFRYEERMIISDIDVSRIQTERLINSSFKA” it was “failed”.
Turning to “MRYSIYLCILFVLSILSCNSKQEDRVIESFYVRKDDLGRNVSISVNPKRILSLTPSITELVYTFSDTSRLIGRSVWCDYPAGVKVIPAVNNYPLDIEGVVRLKPDLILVKQGMISVQELDKLEQLHLAVYVQKYDLLNEIYASTKTLVEITKGDSATYKHWLTSMQSDTMHTSVQHAKTCLAVTSVSPIYVFGKTTFVSELIEQAGGKNCVETIQSAYPTVDVEYILRANPDVFIFNSTDQQKLFFETYPLLKQCKGYITNQLFVIDDSIMSRPGIRLPILKDSLVSILSK”, the protein production entry was “failed”.
Regarding “MSAALPSIQLPVDYNNLFNEITDFLVTFKQDTLSSDATRNENEDENLDAENIEQHLLEKGPKYMAMLQKVANRELNSVIIDLDDILQYQNEKFLQGTQADDLVSAIQQNANHFTELFCRAIDNNMPLPTKEIDYKDDVLDVILNQRRLRNERMLSDRTNEIRSENLMDTTMDPPSSMNDALREVVEDETELFPPNLTRRYFLYFKPLSQNCARRYRKKAISSKPLSVRQIKGDFLGQLITVRGIITRVSDVKPAVEVIAYTCDQCGYEVFQEVNSRTFTPLSECTSEECSQNQTKGQLFMSTRASKFSAFQECKIQELSQQVPVGHIPRSLNIHVNGTLVRSLSPGDIVDVTGIFLPAPYTGFKALKAGLLTETYLEAQFVRQHKKKFASFSLTSDVEERVMELITSGDVYNRLAKSIAPEIYGNLDVKKALLLLLVGGVDKRVGDGMKIRGDINVCLMGDPGVAKSQLLKAICKISPRGVYTTGKGSSGVGLTAAVMKDPVTDEMILEGGALVLADNGICCIDEFDKMDESDRTAIHEVMEQQTISISKAVINTNPGARTSILAAANPLYGRINPRLSPLDNINLPAALLSRFDILFLMLDIPSRDDDEKLAEHVTYVHMHNKQPDLDFTPVEPSKMREYIAYAKTKRPVMSEAVNDYVVQAYIRLRQDSKREMDSKFSFGQATPRTLLGIIRLSQALAKLRLADMVDIDDVEEALRLVRVSKESLYQETNKSKEDESPTTKIFTIIKKMLQETGKNTLSYENIVKTVRLRGFTMLQLSNCIQEYSYLNVWHLINEGNTLKFVDDGTMDTDQEDSLVSTPKLAPQTTASANVSAQDSDIDLQDA”, the protein production result is “failed”.
For “MSADLKQSRLADWRQRALAFEREVGKAVIGLERPIRHILIAVFARGHVMLEGDVGVGKTTLLRAVARCLGGAYERVEGTIDLMPNDLVYHTYINELGKPQVEPGPVLKHGEELSVFFFNEVNRARPQVHSLLLRIMAEHAVSAFNREHFFPYLQVFADRNRVEKEETFEIPSAARDRFMMELHVETPADPALRRALMFDPKFHDVDRLLDTLTPGILPYREIPQIAPVIQQSVTASETLQQYALDLWEATRRPADYGVKLEGIDMDRLILAGASARGVSMMMRAARVAAWLDGRDYLVPEDIHDVFRETIGHRVFFNPVYELRRTALIDELLHAIRQKVAAPLEHHHHHH”, the protein production entry is “not failed”.
On to “MSAFQAFVVNKTETEFTAGVQTISMDDLPEGDVLVRVHYSSVNYKDGLASIPDGKIVKTYPFVPGIDLAGVVVSSQHPRFREGDEVIATGYEIGVTHFGGYSEYARLHGEWLVPLPKGLTLKEAMAIGTAGFTAALSIHRLEEHGLTPERGPVLVTGATGGVGSLAVSMLAKRGYTVEASTGKAAEHDYLRVLGAKEVLAREDVMAERIRPLDKQRWAAAVDPVGGRTLATVLSRMRYGGAVAVSGLTGGAEVPTTVHPFILRGVSLLGIDSVYCPMDLRLRIWERLAGDLKPDLERIAQEISLAELPQALKRILRGELRGRTVVRLA”, for which the protein production entry was “not failed”.
For “MSAHPLAQLETFKHTSKQWNQLREAANMSNRMEHILQAMPSGVVILNGDGIVTDANPVAVELLEQSLCGARWIDVIHTAFAPQDDDGHEVSLRNGRRVKLAITPLTPEPGQLIVLTDLTETRLLQKNLSHLQRLSALGKMVATLAHQVRTPLSAALLYAANLASPKLSDSAKVKFQQKLVDRLNELERQVNDMLLMAKGRQDELGELINLNDVIENVVANCEPIVAKHGAELTVTNASNGLMLANVNALSSAVNNLVMNSLEAGATQIQLVANEIDDQLHLNVVDNGKGLDAKMQQRVLEPFFTTKAQGTGLGLAVVQSVVRNHGGQLQLNCMPNKGCTVSLTFPQAKSATVLPLEKSHV”, the protein production result is listed as “failed”.
For “MSAIDCIITAAGLSSRMGQWKMMLPWEQGTILDTSIKNALQFCSRIILVTGYRGNELHERYANQSNITIIHNPDYAQGLLTSVKAAVPAVQTEHCFLTHGDMPTLTIDIFRKIWSLRNDGAILPLHNGIPGHPILVSKPCLMQAIQRPNVTNMRQALLMGDHYSVEIENAEIILDIDTPDDFITAKERYTEILEHHHHHH”, the protein production result is “not failed”.
Next, “MSAKIVTVFNQKGGCGKTTVSMHIAGTLGVRGSKTLLVDMDEQGTATRWAAQAPEEKPFPASVIGLAPSGGAMHREVRKFIADYDYIVVDCPPAVHSPASSSALLISDIAIIPVVPSPPDLWAAVAAKALAQQAQVTNETLRVRVLANMVQRRVSLAKQAIEILGDDGDIPLMESMIGSRSAFRECQAIGATVHGVPGAREAINEVDIMVNEVLQLLREGQA”: “failed”; “MSAKSPTPQPPYEIPSFRKRRLITTGLLTITTLWFIYFYVDLVSATTLLTLPVIIAAPLIMVYIWYHEFTYYARVRKNNKLYKALYGHLQNHQHPENTDTPPM”: “failed”; “MSALDCPAGTVLFRAGQDCPGFLRLDEGSIRVTLTAANGREVVLYRVRPGDVCLQTFACLTEGRSYSAEGVAETRVRGHLMSHADFRTALARDEAFRTEVMQAVARRFADFEHLVEDVALTGFDTRLARVLLRLAKGDTVAATHEALAAETASGRAFVSRRLAEFARQGLVELARGRVTLCDRSGLERIAAEER”: “not failed”.
In the case of “MSALFLMKTLGLFIATAIAEIVGCYLPYLWLKEGHSVWLLIPAAVSLALFAYLLTLHPAESGRVYAAYGGIYVLTAIVWLRIVDKSPLSNFDLIGTAFVLTGMGILVYGWR” it was “failed”; in that of “MSALLGILGVVLDARFGEPQGWHPLVAFGRLADRLERRFNRSRLAGEADPGVGWRSHGVTAWVLAVLPLTLLAWALAELPYLGWLVQALALYAALGLRSLGEHAEPVALALRAGDLDEARRRVGYLVSRDTRELDQAGVARAATESVLENGSDAVYAALFWFAVAGAPGVVLYRLSNTLDAMWGYRNARFERFGWAAAKIDDILNYLPARLVALTYALLGDTRQALRCWREQAPQWDSPNAGPVMAAGAGALGVFLGGAAIYHGELHQRPLLGSGPQPQGRDIYRALALVRQGVLLWLLVLAGLWAMGWLHA”, “failed”.

The values above are taken from a protein production outcome set (Wang et al. 2014).
